From publication PMC8609364, “A Selective Tether Recruits Activated Response Regulator CheB to Its Chemoreceptor Substrate” (mBio, 2021)

B1: methylesterase/deamidase CheB from E. coli, low-activity, unphosphorylated form (enzyme, UniProt P07330 1-349, looked up)
chain: MSKIRVLSVDDSALMRQIMTEIINSHSDMEMVATAPDPLVARDLIKKFNPDVLTLDVEMPRMDGLDFLEKLMRLRPMPVVMVSSLTGKGSEVTLRALELGAIDFVTKPQLGIREGMLAYNEMIAEKVRTAAKASLAAHKPLSAPTTLKAGPLLSSEKLIAIGASTGGTEAIRHVLQPLPLSSPALLITQHMPPGFTRSFADRLNKLCQIGVKEAEDGERVLPGHAYIAPGDRHMELSRSGANYQIKIHDGPAVNRHRPSVDVLFHSVAKQAGRNAVGVILTGMGNDGAAGMLAMRQAGAWTLAQNEASCVVFGMPREAINMGGVCEVVDLSQVSQQMLAKISAGQAIRI
notes: CheB methylesterase/deamidase of E. coli, unphosphorylated, from plasmid pCW/cheB; measured with 2 mM DTT in the buffer; also called low-activity CheB; unmodified CheB; source: E. coli K-12 RP3098 with pCW/cheB, purified
B2: CheBC, catalytic domain of E. coli CheB lacking the regulatory domain and linker (domain or fragment)
chain: LSSEKLIAIGASTGGTEAIRHVLQPLPLSSPALLITQHMPPGFTRSFADRLNKLCQIGVKEAEDGERVLPGHAYIAPGDRHMELSRSGANYQIKIHDGPAVNRHRPSVDVLFHSVAKQAGRNAVGVILTGMGNDGAAGMLAMRQAGAWTLAQNEASCVVFGMPREAINMGGVCEVVDLSQVSQQMLAKISAGQAIRI

Key:
[1] = target: Tar4E (chemoreceptor Tar, all-glutamyl, pentapeptide-bearing); assay: CheB binding to pentapeptide-bearing Tar4E in Nanodiscs (biolayer interferometry); parameters: species or system E. coli; conditions: Tar 4E, pentapeptide yes, BLI; for dwell time (1/koff) / KA (equilibrium association constant) / kon (apparent association rate constant): pH 7.5, 2% BSA (plus 2 mM DTT for CheB and CheBc); for dwell time (1/koff): calculated from mean koff; for kon (apparent association rate constant): mean ± SD of at least three independent experiments
Description: (§1) We determined the kinetics of association and dissociation of methylesterase/deamidase CheB in its low- and high-activity form with the E. coli aspartate chemoreceptor Tar using biolayer interferometry ([22], [23]) and isolated receptor homodimers in Nanodiscs ([24], [25]). Apparent rate constants of association and dissociation were derived from global fits of time courses for binding and release (see Fig. S1 in the supplemental material). Equilibrium dissociation constants were calculated from those apparent rate constants.
Supplementary file : FIG S1 Example time courses of CheB binding to Tar. Time courses from five consecutive runs of CheB at different concentrations binding to immobilized Tar4E homodimers. For each time course, a sensor tip decorated with avidin to which were bound biotinylated Tar homodimers in Nanodiscs was placed in buffer and a baseline was established (240 to 255 s). The tip was then placed in a tube containing a solution of CheB at a specific concentration. After 30 s, at which time binding of CheB and Tar was close to an apparent equilibrium, the tip was switched to a tube of buffer, and dissociation was monitored. The global fit to the data is shown as a thin black line. Download FIG S1, TIF file, 1.9 MB.
(§2) E. coli CheB and Salmonella CheB D56C/C207S/C309S and D56C/S164A/C207S/C309S were purified as described previously ([11]). CheBC (amino acids [aa] 153 to 349) was purified using the procedure of West et al. ([40]), except that Bio-Gel P-60, was not used. CheB D56C/C207S/C309S and CheB D56C/S164A/C207S/C309S were modified to create a disulfide-linked phosphoryl group on D56C following the procedure described in reference but using a 10-fold molar excess of DTNB [Ellman’s reagent, 5,5′-disulfanediylbis(2-nitrobenzoic acid)] rather than 90-fold and a 50-fold molar excess Na3SPO3 rather than 1,000-fold. The extent of modification was 59% for the former and 60% for the latter determined by reversed phase chromatography essentially as described previously ([26]) and confirmed by Nano LC-Nanospray QTQF mass spectroscopy. Membrane scaffold protein MSP1D1(-) ([41]) was purified as described previously ([25]). Tar4E L378C, Tar4Q L378C, Tar4EΔpp-6H L378C, and Tar4QΔpp-6H L378C were purified, incorporated into Nanodiscs at approximately one receptor dimer per disc, and biotinylated at L378C as described previously ([23], [42]). […] These activities were confirmed for representative samples used in our analyses. Receptor-containing Nanodiscs were dialyzed into 50 mM Tris-HCl (pH 7.5), 0.5 mM EDTA, 10% (wt/vol) glycerol, and 100 mM NaCl. Prior to a binding experiment, the solution was changed using a spin desalting column to 50 mM Tris-HCl, 10% (wt/vol) glycerol, 5 mM MgCl2, and 50 mM KCl (pH 7.5).
(§3) Kinetics of CheB association and dissociation with Nanodisc-embedded Tar biotinylated at L378C were determined using biolayer interferometry ([22], [23]) as measured by a BLItz instrument (ForteBio, Menlo Park, CA, USA) and described in reference. Representative time course experiments are shown in Fig. S1 in the supplemental material. Measurements for CheB-P* and CheB-P*-I were in 50 mM Tris-HCl (pH 7.5), 10% (wt/vol) glycerol, 5 mM MgCl2, 50 mM KCl, and 2% (wt/vol) bovine serum albumin (BSA). Measurements for CheB and CheBc were in the same solution plus 2 mM dithiothreitol (DTT).
Using BLItz software, response curves were fit globally to a 1:1 binding model to yield apparent association rate constants (kon) and dissociation rate constants (koff). For analysis of complex patterns of binding, in which more than one binding reaction appeared to be contributing, for instance one that appeared saturable and another nonspecific, nonsaturable, the data were exported and fit globally to nonlinear exponential functions using OriginPro 2017. The best fits to the data were obtained using the following functions. […]

[2] = tested on: Tar4QΔpp (chemoreceptor Tar, all-glutaminyl, lacking NWETF); assay: CheB binding to Tar4QΔpp (pentapeptide-lacking) in Nanodiscs (biolayer interferometry); parameters: species or system E. coli; conditions: Tar 4Q, pentapeptide no, BLI, pH 7.5, 2% BSA (plus 2 mM DTT for CheB and CheBc); for dwell time (1/koff): calculated from mean koff; for dwell time (1/koff) / KA (equilibrium association constant): propagated SD; for KA (equilibrium association constant): calculated from mean kon and koff; for kon (apparent association rate constant): mean ± SD of at least three independent experiments
Description: as §1, §2, §3
Using BLItz software, response curves were fit globally to a 1:1 binding model to yield apparent association rate constants (kon) and dissociation rate constants (koff). For analysis of complex patterns of binding, in which more than one binding reaction appeared to be contributing, for instance one that appeared saturable and another nonspecific, nonsaturable, the data were exported and fit globally to nonlinear exponential functions using OriginPro 2017. The best fits to the data were obtained using the following functions. R=R0 + Req[a(e^−kd1 t) + b(e^−kd2 t)] was used to globally fit dissociation time courses, with R being the response (in nanometers), a + b = 1, with a and b being the portion of the signal (in nanometers) for fast and slow phases, respectively, kd1 and kd2 being the respective dissociation rate constants, and Req being the response at equilibrium. Association data were fit using apparent dissociation rate constants kd1 and kd2, relevant CheB concentrations (C) and the equation R=R0 + Req[a(1 − e^−(ka1 C+kd1)t) + b(1 − e^−(ka2 C+kd2)t)]

[3] = target: Tar4EΔpp-6H L378C, E. coli Tar lacking the carboxyl-terminal pentapeptide, all-glutamyl form, homodimer in … (E. coli, UniProt P07017 1-553, L378C, biotinylated at L378C); assay: SPR
[4] = target: Tar4E L378C, E. coli aspartate chemoreceptor Tar, all-glutamyl form with carboxyl-terminal pentapeptide, … (E. coli, UniProt P07017 1-553, L378C, biotinylated at L378C); assay: SPR
[5] = target: Tar4Q L378C, E. coli aspartate chemoreceptor Tar, all-glutaminyl form with carboxyl-terminal pentapeptide, … (E. coli, UniProt P07017 1-553, L378C, biotinylated at L378C); assay: SPR
[6] = target: Tar4QΔpp-6H L378C, E. coli Tar lacking the carboxyl-terminal pentapeptide, all-glutaminyl form, homodimer in … (E. coli, UniProt P07017 1-553, L378C, biotinylated at L378C); assay: SPR
[7] = calculated from mean kon and koff, propagated SD

Molecule | Kd ([1]; 50 mM Tris-HCl pH 7.5, 10% glycerol, 5 mM MgCl2, 50 mM KCl, 2% BSA (plus 2 mM DTT for CheB and CheBc), calculated from mean kon and koff, propagated SD, read-out: KD (equilibrium dissociation constant)) | dwell time (1/koff) ([1]; propagated SD) | KA (equilibrium association constant) [1, 7] | kon (apparent association rate constant) [1] | dwell time (1/koff) [2] | KA (equilibrium association constant) [2] | kon (apparent association rate constant) [2] | koff [3] | koff [4] | koff [5] | koff [6]
B1 | 230 ± 60 µM | 2.8 ± 0.2 s | 4.4 ± 1 10^3 M^-1 | 1,600 ± 420 M^-1s^-1 | 1.5 ± 0.05 s | 1.7 ± 0.4 10^3 M^-1 | 1,100 ± 260 M^-1s^-1 | 0.64 s⁻¹ | 0.36 s⁻¹ | 0.46 s⁻¹ | 0.65 s⁻¹
B2 |  | 2.1 ± 0.1 s | 1.7 ± 0.4 10^3 M^-1 | 810 ± 200 M⁻¹ s⁻¹ | 1.7 ± 0.1 s | 0.8 ± 0.1 10^3 M^-1 | 480 ± 20 M⁻¹ s⁻¹ | 0.44 s⁻¹ | 0.48 s⁻¹ | 0.48 s⁻¹ | 0.58 s⁻¹
